The values below come from paper PMC10630141, “OPUS-DSD: deep structural disentanglement for cryo-EM single-particle analysis” (Nature Methods, 2023).

The term stoichiometry N denotes a count of units in the complex or per binding partner.

The data set deals with the molecule itself. Description: cryo-EM structure; NEXT complex (MTR4, RBM7, ZCCHC8) purified on poly-flag-tag beads and Superdex 200, cross-linked in a 10-30% glycerol gradient with 0.2% glutaraldehyde, dialysed into 20 mM HEPES pH 7.4, 150 mM NaCl; single-particle analysis, signal of one MTR4 helicase domain subtracted.

B1: ZCCHC8 (natural protein, UniProt Q6NZY4 1-707, looked up)
chain: MAAEVYFGDLELFEPFDHPEESIPKPVHTRFKDDDGDEEDENGVGDAELRERLRQCEETIEQLRAENQELKRKLNILTRPSGILVNDTKLDGPILQILFMNNAISKQYHQEIEEFVSNLVKRFEEQQKNDVEKTSFNLLPQPSSIVLEEDHKVEESCAIKNNKEAFSVVGSVLYFTNFCLDKLGQPLLNENPQLSEGWEIPKYHQVFSHIVSLEGQEIQVKAKRPKPHCFNCGSEEHQMKDCPMPRNAARISEKRKEYMDACGEANNQNFQQRYHAEEVEERFGRFKPGVISEELQDALGVTDKSLPPFIYRMRQLGYPPGWLKEAELENSGLALYDGKDGTDGETEVGEIQQNKSVTYDLSKLVNYPGFNISTPRGIPDEWRIFGSIPMQACQQKDVFANYLTSNFQAPGVKSGNKRSSSHSSPGSPKKQKNESNSAGSPADMELDSDMEVPHGSQSSESFQFQPPLPPDTPPLPRGTPPPVFTPPLPKGTPPLTPSDSPQTRTASGAVDEDALTLEELEEQQRRIWAALEQAESVNSDSDVPVDTPLTGNSVASSPCPNELDLPVPEGKTSEKQTLDEPEVPEIFTKKSEAGHASSPDSEVTSLCQKEKAELAPVNTEGALLDNGSVVPNCDISNGGSQKLFPADTSPSTATKIHSPIPDMSKFATGITPFEFENMAESTGMYLRIRSLLKNSPRNQQKNKKASE
notes: ZCCHC8 of the nuclear exosome-targeting (NEXT) complex; The complex was cross-linked with glutaraldehyde before the grids were made; ZCCHC8 forms the dimeric centre of the complex; also called ZCCHC8 center; ZCCHC8 dimeric center; source: HEK293 GnTI- cells infected with recombinant baculovirus, overexpressed separately; cell pellets of the three NEXT proteins mixed, purified as the complex …
In the case of B1, the “stoichiometry N” value was 2.
